Measurements taken from patent US20190142963A1 (INDIANA UNIVERSITY RESEARCH AND TECHNOLOGY, published 2019).
Read-outs that look alike come from different tables or passages of the source. Non-standard residues stand in square brackets, D forms with d. No end group written: not given here.

T1: human Klotho β (human, UniProt Q86Z14 1-1044)
T1 sequence (looked up): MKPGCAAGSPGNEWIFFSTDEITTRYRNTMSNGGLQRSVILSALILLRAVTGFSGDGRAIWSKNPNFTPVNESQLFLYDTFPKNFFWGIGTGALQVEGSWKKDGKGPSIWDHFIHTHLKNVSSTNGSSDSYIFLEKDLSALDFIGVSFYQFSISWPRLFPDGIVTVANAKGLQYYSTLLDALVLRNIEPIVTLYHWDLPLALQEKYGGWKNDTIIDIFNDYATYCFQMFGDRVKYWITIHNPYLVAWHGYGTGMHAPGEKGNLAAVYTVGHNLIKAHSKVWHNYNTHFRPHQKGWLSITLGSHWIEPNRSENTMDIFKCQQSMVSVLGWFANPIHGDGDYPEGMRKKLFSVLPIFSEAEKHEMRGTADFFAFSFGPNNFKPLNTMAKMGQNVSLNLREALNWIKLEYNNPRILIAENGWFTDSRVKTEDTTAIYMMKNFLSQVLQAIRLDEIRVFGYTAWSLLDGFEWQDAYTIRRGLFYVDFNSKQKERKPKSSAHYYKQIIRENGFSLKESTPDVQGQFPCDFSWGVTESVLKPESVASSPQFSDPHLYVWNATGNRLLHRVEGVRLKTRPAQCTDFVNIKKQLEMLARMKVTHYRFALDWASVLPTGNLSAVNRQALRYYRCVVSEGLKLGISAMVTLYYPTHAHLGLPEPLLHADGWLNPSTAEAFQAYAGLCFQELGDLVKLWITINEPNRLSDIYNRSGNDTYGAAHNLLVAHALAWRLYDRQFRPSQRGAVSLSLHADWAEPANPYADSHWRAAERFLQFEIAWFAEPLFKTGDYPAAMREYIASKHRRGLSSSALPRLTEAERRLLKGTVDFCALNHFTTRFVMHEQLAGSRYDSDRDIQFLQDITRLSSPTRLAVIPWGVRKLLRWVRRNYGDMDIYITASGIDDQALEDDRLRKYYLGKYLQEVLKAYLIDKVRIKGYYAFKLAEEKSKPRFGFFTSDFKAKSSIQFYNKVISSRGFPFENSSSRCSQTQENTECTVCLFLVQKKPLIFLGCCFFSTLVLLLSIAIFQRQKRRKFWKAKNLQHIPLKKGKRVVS

B1: FGF21 25mer A17 (peptide)
peptide: PPDVGSSDPLSMVGPSAGRSPSYAS
B2: FGF19 S10 (peptide)
peptide: LETDSMDPF[dS]LVTGLEAVRSPSFES-NH2
B3: FGF21 25mer A22 (peptide)
peptide: PPDVGSSDPLSMVGPSQGRSPAYAS
B4: FGF21 25mer A25 (peptide)
peptide: PPDVGSSDPLSMVGPSQGRSPSYAA
B5: FGF21 (ligand)
chain: HPIPDSSPLLQFGGQVRQRYLYTDDAQQTEAHLEIREDGTVGGAADQSPESLLQLKALKPGVIQILGVKTSRFLCQRPDGALYGSLHFDPEACSFRELLLEDGYNVYQSEAHGLPLHLPGNKSPHRDPAPRGPARFLPLPGLPPALPEPPGILAPQPPDVGSSDPLSMVGPSQGRSPSYAS
B6: FGF21 D164A (ligand)
chain: HPIPDSSPLLQFGGQVRQRYLYTDDAQQTEAHLEIREDGTVGGAADQSPESLLQLKALKPGVIQILGVKTSRFLCQRPDGALYGSLHFDPEACSFRELLLEDGYNVYQSEAHGLPLHLPGNKSPHRDPAPRGPARFLPLPGLPPALPEPPGILAPQPPDVGSSAPLSMVGPSQGRSPSYAS
B7: FGF21 25mer A1 (peptide)
peptide: APDVGSSDPLSMVGPSQGRSPSYAS
B8: FGF21 25mer A23 (peptide)
peptide: PPDVGSSDPLSMVGPSQGRSPSAAS
B9: FGF19 S10A26 (peptide)
peptide: LETDSMDPF[dS]LVTGLEAVRSPSFEA-NH2
B10: FGF21 D11D19 (peptide)
peptide: PPDVGSSDPL[dS]MVGPSQG[dR]SPSYAS-NH2
B11: FGF21 25mer A13 (peptide)
peptide: PPDVGSSDPLSMAGPSQGRSPSYAS
B12: FGF21 25mer A3 (peptide)
peptide: PPAVGSSDPLSMVGPSQGRSPSYAS
B13: FGF19 A26 (peptide)
peptide: LETDSMDPFGLVTGLEAVRSPSFEA
B14: FGF21 D11 (peptide)
peptide: PPDVGSSDPL[dS]MVGPSQGRSPSYAS-NH2
B15: FGF21 25mer A4 (peptide)
peptide: PPDAGSSDPLSMVGPSQGRSPSYAS
B16: FGF21 25mer A15 (peptide)
peptide: PPDVGSSDPLSMVGASQGRSPSYAS
B17: FGF21 25mer A19 (peptide)
peptide: PPDVGSSDPLSMVGPSQGASPSYAS
B18: FGF21 25mer A2 (peptide)
peptide: PADVGSSDPLSMVGPSQGRSPSYAS
B19: FGF21 25mer A21 (peptide)
peptide: PPDVGSSDPLSMVGPSQGRSASYAS
B20: FGF21 25mer A20 (peptide)
peptide: PPDVGSSDPLSMVGPSQGRAPSYAS
B21: FGF21 25mer A10 (peptide)
peptide: PPDVGSSDPASMVGPSQGRSPSYAS
B22: FGF21 25mer A16 (peptide)
peptide: PPDVGSSDPLSMVGPAQGRSPSYAS
B23: FGF21 D19 (peptide)
peptide: PPDVGSSDPLSMVGPSQG[dR]SPSYAS-NH2
B24: FGF21 25mer A6 (peptide)
peptide: PPDVGASDPLSMVGPSQGRSPSYAS
B25: FGF21 25mer A18 (peptide)
peptide: PPDVGSSDPLSMVGPSQARSPSYAS
B26: FGF21 157-181 (peptide)
peptide: PPDVGSSDPLSMVGPSQGRSPSYAS-NH2

Columns and labels:
Experiment in all cases: cell-based or functional assay
human Klotho β [1] = target: T1, human Klotho β
human Klotho β [2] = target: T1, human Klotho β; remark: listed apart in the source
human Klotho β [3] = target: T1, human Klotho β; remark: listed apart in the source
human Klotho β [4] = target: T1, human Klotho β; remark: listed apart in the source
human Klotho β [5] = target: T1, human Klotho β; remark: listed apart in the source
human Klotho β [6] = target: T1, human Klotho β; remark: listed apart in the source

Binder | % max activity of antagonism of FGF21 (pErk1/2, 293 HEK hKLB cells) (human Klotho β [1]) [%] | IC-50 of antagonism of FGF21 (pErk1/2, 293 HEK hKLB cells) (human Klotho β [1]) | IC-50 of antagonism of FGF21 (pErk1/2, 293 HEK hKLB cells) (human Klotho β [2]) [µM] | IC-50 of antagonism of FGF21 (pErk1/2, 293 HEK hKLB cells) (human Klotho β [4]) [µM] | other results
B1 | 99.7 | 139 nM | 0.13 |  | 
B2 |  |  |  |  | IC50 of antagonism of FGF21 (assay of Example 1) (human Klotho β [3]): 194 nM
B3 | 78.5 | 752 nM |  | 0.67 | 
B4 | 99 | 45 nM | 0.06 |  | 
B5 |  |  |  |  | % maximal activity, Erk1/2 phosphorylation in 293T HEK hKLB cells (FIG. 9A) (human Klotho β [5]): 100%
B6 |  |  |  |  | % maximal activity, Erk1/2 phosphorylation in 293T HEK hKLB cells (FIG. 9A) (human Klotho β [5]): 6%
B7 | 100 | 33 nM | 0.39 |  | 
B8 | 73.6 | 3.98 µM |  | 4.16 | 
B9 |  |  |  |  | IC50 of antagonism of FGF21 (assay of Example 1) (human Klotho β [3]): 10.9 nM
B10 |  |  |  |  | IC50 of antagonism of FGF21 (assay of Example 1) (human Klotho β [3]): 14.1 nM
B11 | 87.9 | 2.11 µM |  | 4.6 | 
B12 | 87.8 | 2.28 µM |  | 1.5 | 
B13 |  |  |  |  | IC50 of antagonism of FGF21 (assay of Example 1) (human Klotho β [3]): 17.9 nM
B14 |  |  |  |  | % Activity vs C25 (human Klotho β [6]): 596%; IC50 of antagonism of FGF21 (assay of Example 1) (human Klotho β [6]): 57.3 nM; IC50 of antagonism of FGF21 (assay of Example 1) (human Klotho β [3]): 19.9 nM
B15 | 63.6 | 5.93 µM |  | 2.69 | 
B16 | 93.9 | 134 nM | 0.12 |  | 
B17 | 100 | 102 nM | 0.1 |  | 
B18 | 98.5 | 137 nM | 0.62 |  | 
B19 | 70.5 | 2.24 µM |  | 2.57 | 
B20 | 73.5 | 3.23 µM |  | 2.21 | 
B21 | 76 | 3.32 µM |  | 2.75 | 
B22 | 101 | 120 nM | 0.11 |  | 
B23 |  |  |  |  | % Activity vs C25 (human Klotho β [6]): 271%; IC50 of antagonism of FGF21 (assay of Example 1) (human Klotho β [6]): 152 nM; IC50 of antagonism of FGF21 (assay of Example 1) (human Klotho β [3]): 52.5 nM
B24 | 89.2 | 2.65 µM |  | 2.44 | 
B25 | 103 | 139 nM | 0.15 |  | 
B26 | 100 | 168 nM | 0.16 |  | % Activity vs C25 (human Klotho β [6]): 100%; IC50 of antagonism of FGF21 (assay of Example 1) (human Klotho β [6]): 283 nM; IC50 of antagonism of FGF21 (assay of Example 1) (human Klotho β [3]): 182 nM
